Assay: in vivo
Conditions: BALB/c nude, mouse, iv, total radioactivity
Procedure, shortened: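 Compounds labelled with ^177Lu in 0.5 M NaOAc pH 4.5 at 95° C for 15 min, then used directly or diluted in PBS with 3 mg/mL ascorbate. BALB/c nude mice bore subcutaneous AR42J flank xenografts (0.05-0.50 g). Organs excised at 4, 24 and 72 h post-injection and γ-counted for % ID and % ID/g.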

[1] = in vivo, T/K Tumor/Kidney ratio
[2] = in vivo, T/P Tumor/Pancreas ratio
[3] = in vivo, T/Sp Tumor/Spleen ratio
[4] = in vivo, T/St Tumor/Stomach ratio

## CCCC[C@H](NC(=O)[C@H](Cc1c[nH]c2ccccc12)NC(=O)CNC(=O)[C@H](Cc1ccc(O)cc1)NC(=O)[C@H](C)NC(=O)[C@@H](CCC(=O)O)NC(=O)[C@@H](CCC(=O)O)NC(=O)[C@@H](CCC(=O)O)NC(=O)[C@@H](CCC(=O)O)NC(=O)[C@@H](CCC(=O)O)NC(=O)[C@@H](CCC(=O)O)NC(=O)CN1CCN(CC(=O)O)CCN(CC(=O)O)CCN(CC(=O)O)CC1)C(=O)N[C@@H](CC(=O)O)C(=O)N[C@@H](Cc1ccccc1)C(N)=O [^177Lu-C-2, metal not drawn, reference compound]
In vivo, % ID/g Blood
  tissue uptake at 4 h: 0.08 %ID/g
  tissue uptake at 24 h: 0.01 %ID/g
In vivo, % ID/g Femur
  tissue uptake at 4 h: 0.12 %ID/g
  tissue uptake at 24 h: 0.24 %ID/g
In vivo, % ID/g Heart
  tissue uptake at 4 h: 0.05 %ID/g
  tissue uptake at 24 h: 0.04 %ID/g
In vivo, % ID/g Intestine
  tissue uptake at 4 h: 0.06 %ID/g
  tissue uptake at 24 h: 0.05 %ID/g
In vivo, % ID/g Kidney
  tissue uptake at 4 h: 2.72 %ID/g
  tissue uptake at 24 h: 0.71 %ID/g
In vivo, % ID/g Liver
  tissue uptake at 4 h: 0.15 %ID/g
  tissue uptake at 24 h: 0.12 %ID/g
In vivo, % ID/g Lung
  tissue uptake at 4 h: 0.06 %ID/g
  tissue uptake at 24 h: 0.11 %ID/g
In vivo, % ID/g Muscle
  tissue uptake at 4 h: 0.06 %ID/g
  tissue uptake at 24 h: 0.01 %ID/g
In vivo, % ID/g Pancreas
  tissue uptake at 4 h: 0.01 %ID/g
In vivo, % ID/g Spleen
  tissue uptake at 4 h: 0.06 %ID/g
  tissue uptake at 24 h: 0.05 %ID/g
In vivo, % ID/g Stomach
  tissue uptake at 4 h: 0.21 %ID/g
  tissue uptake at 24 h: 0.17 %ID/g
In vivo, % ID/g Tumor
  tissue uptake at 4 h: 1.07 %ID/g
  tissue uptake at 24 h: 0.82 %ID/g
pancreas, % ID/g Pancreas, 24 h post-injection, n=3
  tissue uptake at 24 h: 0.02 %ID/g

## C[C@@H](O)[C@H](NC(=O)[C@@H]1CSSC[C@H](NC(=O)[C@@H](Cc2ccccc2)NC(=O)COCCOCCNC(=O)COCCOCCNC(=O)[C@H](CCCCNC(=O)c2cccc(NC(=O)N[C@@H]3CN(C4CCCCC4)c4ccccc4N(CC(=O)C(C)(C)C)C3=O)c2)NC(=O)CN2CCN(CC(=O)O)CCN(CC(=O)O)CCN(CC(=O)O)CC2)C(=O)N[C@@H](Cc2ccc(O)cc2)C(=O)N[C@H](Cc2c[nH]c3ccccc23)C(=O)N[C@@H](CCCCN)C(=O)N[C@@H]([C@@H](C)O)C(=O)N1)C(=O)O [Compound 177Lu-I-39, metal not drawn]
In vivo, % ID/g Adrenal gland
  tissue uptake at 4 h: 1.33 %ID/g
  tissue uptake at 24 h: 1.06 %ID/g
  tissue uptake at 72 h: 0.3 %ID/g
In vivo, % ID/g Blood
  tissue uptake at 4 h: 0.91 %ID/g
  tissue uptake at 24 h: 0.33 %ID/g
  tissue uptake at 72 h: 0.06 %ID/g
In vivo, % ID/g Fat
  tissue uptake at 4 h: 3.38 %ID/g
  tissue uptake at 24 h: 1.07 %ID/g
  tissue uptake at 72 h: 0.27 %ID/g
In vivo, % ID/g Femur
  tissue uptake at 4 h: 0.9 %ID/g
  tissue uptake at 24 h: 0.42 %ID/g
  tissue uptake at 72 h: 0.1 %ID/g
In vivo, % ID/g Heart
  tissue uptake at 4 h: 0.84 %ID/g
  tissue uptake at 24 h: 0.38 %ID/g
  tissue uptake at 72 h: 0.12 %ID/g
In vivo, % ID/g Intestine
  tissue uptake at 4 h: 1.8 %ID/g
  tissue uptake at 24 h: 0.76 %ID/g
  tissue uptake at 72 h: 0.24 %ID/g
In vivo, % ID/g Kidney
  tissue uptake at 4 h: 25.7 %ID/g
  tissue uptake at 24 h: 12 %ID/g
  tissue uptake at 72 h: 3.2 %ID/g
In vivo, % ID/g Liver
  tissue uptake at 4 h: 6.35 %ID/g
  tissue uptake at 24 h: 2.78 %ID/g
  tissue uptake at 72 h: 1.24 %ID/g
In vivo, % ID/g Lung
  tissue uptake at 4 h: 3.81 %ID/g
  tissue uptake at 24 h: 1.85 %ID/g
  tissue uptake at 72 h: 0.87 %ID/g
In vivo, % ID/g Muscle
  tissue uptake at 4 h: 0.3 %ID/g
  tissue uptake at 24 h: 0.13 %ID/g
  tissue uptake at 72 h: 0.02 %ID/g
In vivo, % ID/g Pancreas
  tissue uptake at 4 h: 3.71 %ID/g
  tissue uptake at 24 h: 0.94 %ID/g
  tissue uptake at 72 h: 0.15 %ID/g
In vivo, % ID/g Spleen
  tissue uptake at 4 h: 0.76 %ID/g
  tissue uptake at 24 h: 0.31 %ID/g
  tissue uptake at 72 h: 0.07 %ID/g
In vivo, % ID/g Stomach
  tissue uptake at 4 h: 6.28 %ID/g
  tissue uptake at 24 h: 4.63 %ID/g
  tissue uptake at 72 h: 1.26 %ID/g
In vivo, % ID/g Tumor
  tissue uptake at 4 h: 41.8 %ID/g
  tissue uptake at 24 h: 27.5 %ID/g
  tissue uptake at 72 h: 9.48 %ID/g

## CC(C)(C)C(=O)CN1C(=O)[C@H](NC(=O)Nc2cccc(C(=O)N[C@@H](CCC(=O)N[C@@H](CCC(=O)N[C@@H](CCC(=O)N[C@@H](CCCCNC(=O)COCCOCCNC(=O)COCCOCCNC(=O)CCC(C(=O)O)N3CCN(CC(=O)O)CCN(CC(=O)O)CCN(CC(=O)O)CC3)C(N)=O)C(=O)O)C(=O)O)C(=O)O)c2)CN(C2CCCCC2)c2ccccc21 (stereo partly drawn) [^177Lu-C-4, metal not drawn, reference compound]
In vivo, % ID/g Blood
  tissue uptake at 4 h: 0.09 %ID/g
  tissue uptake at 24 h: 0.01 %ID/g
In vivo, % ID/g Femur
  tissue uptake at 4 h: 0.04 %ID/g
  tissue uptake at 24 h: 0.04 %ID/g
In vivo, % ID/g Heart
  tissue uptake at 4 h: 0.07 %ID/g
  tissue uptake at 24 h: 0.03 %ID/g
In vivo, % ID/g Intestine
  tissue uptake at 4 h: 0.12 %ID/g
  tissue uptake at 24 h: 0.04 %ID/g
In vivo, % ID/g Kidney
  tissue uptake at 4 h: 3.38 %ID/g
  tissue uptake at 24 h: 1.32 %ID/g
In vivo, % ID/g Liver
  tissue uptake at 4 h: 0.17 %ID/g
  tissue uptake at 24 h: 0.11 %ID/g
In vivo, % ID/g Lung
  tissue uptake at 4 h: 0.07 %ID/g
  tissue uptake at 24 h: 0.03 %ID/g
In vivo, % ID/g Muscle
  tissue uptake at 4 h: 0.02 %ID/g
  tissue uptake at 24 h: 0.01 %ID/g
In vivo, % ID/g Pancreas
  tissue uptake at 4 h: 0.03 %ID/g
  tissue uptake at 24 h: 0.01 %ID/g
In vivo, % ID/g Spleen
  tissue uptake at 4 h: 0.06 %ID/g
  tissue uptake at 24 h: 0.02 %ID/g
In vivo, % ID/g Stomach
  tissue uptake at 4 h: 0.06 %ID/g
  tissue uptake at 24 h: 0.03 %ID/g
In vivo, % ID/g Tumor
  tissue uptake at 4 h: 4.69 %ID/g
  tissue uptake at 24 h: 1.44 %ID/g

## C[C@@H](O)[C@H](NC(=O)[C@@H]1CSSC[C@H](NC(=O)[C@@H](Cc2ccccc2)NC(=O)CCCCCCCNC(=O)[C@H](CCCCNC(=O)c2cccc(NC(=O)N[C@@H]3CN(C4CCCCC4)c4ccccc4N(CC(=O)C(C)(C)C)C3=O)c2)NC(=O)CN2CCN(CC(=O)O)CCN(CC(=O)O)CCN(CC(=O)O)CC2)C(=O)N[C@@H](Cc2ccc(O)cc2)C(=O)N[C@H](Cc2c[nH]c3ccccc23)C(=O)N[C@@H](CCCCN)C(=O)N[C@@H]([C@@H](C)O)C(=O)N1)C(=O)O [Compound I-61, DOTA-K(Z360)-Aoc-f[CYwKTC]T-OH]
[1]
  tissue to tissue ratio at 24 h: 3.5
In vivo, T/L Tumor/Liver ratio
  tissue to tissue ratio at 24 h: 0.1
[2]
  tissue to tissue ratio at 24 h: 16
[3]
  tissue to tissue ratio at 24 h: 0.2
[4]
  tissue to tissue ratio at 24 h: 4.5
In vivo, uptake Kidney
  tissue uptake at 24 h: 1.53 %ID/g
In vivo, uptake Liver
  tissue uptake at 24 h: 53.3 %ID/g
In vivo, uptake Pancreas
  tissue uptake at 24 h: 0.34 %ID/g
In vivo, uptake Spleen
  tissue uptake at 24 h: 28.3 %ID/g
In vivo, uptake Stomach
  tissue uptake at 24 h: 1.21 %ID/g
In vivo, uptake Tumor
  tissue uptake at 24 h: 5.41 %ID/g

## C[C@@H](O)[C@H](NC(=O)[C@@H]1CSSC[C@H](NC(=O)[C@@H](Cc2ccccc2)NC(=O)[C@H](CCCCNC(=O)c2cccc(NC(=O)N[C@@H]3CN(C4CCCCC4)c4ccccc4N(CC(=O)C(C)(C)C)C3=O)c2)NC(=O)COCCOCCNC(=O)CN2CCN(CC(=O)O)CCN(CC(=O)O)CCN(CC(=O)O)CC2)C(=O)N[C@@H](Cc2ccc(O)cc2)C(=O)N[C@H](Cc2c[nH]c3ccccc23)C(=O)N[C@@H](CCCCN)C(=O)N[C@@H]([C@@H](C)O)C(=O)N1)C(=O)O [Compound I-35, DOTA-OEG-K(Z360)-f[CYwKTC]T-OH]
[1]
  tissue to tissue ratio at 24 h: 2.9
In vivo, T/L Tumor/Liver ratio
  tissue to tissue ratio at 24 h: 3.5
[2]
  tissue to tissue ratio at 24 h: 19
[3]
  tissue to tissue ratio at 24 h: 38
[4]
  tissue to tissue ratio at 24 h: 5.8
In vivo, uptake Kidney
  tissue uptake at 24 h: 6.1 %ID/g
In vivo, uptake Liver
  tissue uptake at 24 h: 5.06 %ID/g
In vivo, uptake Pancreas
  tissue uptake at 24 h: 0.96 %ID/g
In vivo, uptake Spleen
  tissue uptake at 24 h: 0.47 %ID/g
In vivo, uptake Stomach
  tissue uptake at 24 h: 3.09 %ID/g
In vivo, uptake Tumor
  tissue uptake at 24 h: 17.8 %ID/g

## C[C@@H](O)[C@H](NC(=O)[C@@H]1CSSC[C@H](NC(=O)[C@@H](Cc2ccccc2)NC(=O)COCCOCCNC(=O)[C@H](CCCCNC(=O)CC[C@H](NC(=O)CNC(=O)c2cccc(NC(=O)N[C@@H]3CN(C4CCCCC4)c4ccccc4N(CC(=O)C(C)(C)C)C3=O)c2)C(=O)O)NC(=O)COCCOCCNC(=O)COCCOCCNC(=O)COCCOCCNC(=O)COCCOCCNC(=O)COCCOCCNC(=O)CC[C@H](NC(=O)CN2CCN(CC(=O)O)CCN(CC(=O)O)CCN(CC(=O)O)CC2)C(=O)O)C(=O)N[C@@H](Cc2ccc(O)cc2)C(=O)N[C@H](Cc2c[nH]c3ccccc23)C(=O)N[C@@H](CCCCN)C(=O)N[C@@H]([C@@H](C)O)C(=O)N1)C(=O)O [Compound I-22, DOTA-gE-OEG-OEG-OEG-OEG-OEG-K(-gE-G-Z360)-OEG-f[CYwKTC]T-OH)]
[1]
  tissue to tissue ratio at 24 h: 0.6
In vivo, T/L Tumor/Liver ratio
  tissue to tissue ratio at 24 h: 12
[2]
  tissue to tissue ratio at 24 h: 5
[3]
  tissue to tissue ratio at 24 h: 12
[4]
  tissue to tissue ratio at 24 h: 7.5
In vivo, uptake Kidney
  tissue uptake at 24 h: 21.9 %ID/g
In vivo, uptake Liver
  tissue uptake at 24 h: 1.1 %ID/g
In vivo, uptake Pancreas
  tissue uptake at 24 h: 2.6 %ID/g
In vivo, uptake Spleen
  tissue uptake at 24 h: 1.1 %ID/g
In vivo, uptake Stomach
  tissue uptake at 24 h: 1.7 %ID/g
In vivo, uptake Tumor
  tissue uptake at 24 h: 12.7 %ID/g

— patent US20260248972A1, “DUAL RECEPTOR TARGETING RADIOLIGANDS AND USES THEREOF RELATED APPLICATIONS” (priority 2022, published 2026)
